Assay results from patent US10350158B2, “2′ fluoro-modified RNAs as immunostimulators” (DUKE UNIVERSITY, priority 2013, dated 2019).
Strand notation (5' to 3'): a small letter for the sugar, then the base; units joined by * are phosphorothioate-linked, units joined directly phosphodiester-linked; [ ] holds rarer units or linkages, { } end groups; capitals alone tell only the bases. {ppp} = triphosphate; r = 2'-OH (RNA); f = 2'-fluoro

Assays:
WM266-4 cells [1] = format: cell-based
Procedure: (§1) For the intracellular delivery of immune stimulatory RNAs, RNAs were transfected with the DharmaFECT® Duo liposomal transfection reagent (Thermo Scientific, Waltham, Mass.) at a transfection reagent (μl):RNA (μg) ratio of 3.75:1, according to the manufacturer's instructions. Unless otherwise stated, for the induction of innate immune responses and apoptosis, immune stimulatory RNAs (500 ng/ml) were transfected into 50 to 70% confluent cells. Cells were incubated with an RNA-transfection agent complex for 5 h, followed by replenishment with fresh culture medium. To electroporate cells, 1×10^5 cells suspended in 200 μl Opti-MEM I (Invitrogen) were mixed with 1 μg of immune stimulatory RNAs or 5 μg of 2′Fluoro pyrimidine ribonucleoside triphosphate in 2-mm cuvettes and were electroporated at 300 V for 500 μs using an Electro Square Porator ECM 830 (BTX, San Diego, Calif.). For the knockdown of RNA-sensing PRRs, cells were transfected with PRR-specific siRNAs (25 nM) twice at 2-day intervals using DharmaFECT®-1 (Thermo Scientific). At 5 h after the second siRNA transfection, cells were harvested, replated into a 96-well plate and incubated overnight. Cells were then treated with immune stimulatory RNA transfections. Staurosporine (2 μM) (Sigma, St Louis, Mo.) and recombinant human IFNβ (20 ng/ml) (PeproTech, Rocky Hill, N.J.) were used as positive controls of anti-melanoma cytotoxicity. B18R (100 ng/ml) (eBioscience, San Diego, Calif.) was added directly to the growth media of cells to neutralize IFNβ.
(§2) Growth inhibition relative to untreated cells was quantified at 72 h after RNA transfection using an MTT Cell Proliferation Assay Kit (Cayman Chemicals, Ann Arbor, Mich.), according to the manufacturer's instructions. The percent growth inhibition was calculated by using the following equation: % growth inhibition=([O.D.]untreated−[O.D.]treated)/[O.D.]untreated×100. The induction of cell death was measured 48 h after RNA transfection by flow cytometry after staining with Annexin V-PE and 7-Aminoactinomycin D (7-AAD) using the PE Annexin V Apoptosis Detection Kit I (BD Biosciences, San Jose, Calif.) and analyzed using the CellQuest software (BD Biosciences).

WM266-4 cells [2] = assay: Apoptosis / cell death by Annexin V-PE and 7-AAD flow cytometry; format: cell-based, human; conditions: aptamer treated with bacterial alkaline phosphatase (BAP), 0.125 μg/ml
Procedure: For the intracellular delivery of immune stimulatory RNAs, RNAs were transfected with the DharmaFECT® Duo liposomal transfection reagent (Thermo Scientific, Waltham, Mass.) at a transfection reagent (μl):RNA (μg) ratio of 3.75:1, according to the manufacturer's instructions. Unless otherwise stated, for the induction of innate immune responses and apoptosis, immune stimulatory RNAs (500 ng/ml) were transfected into 50 to 70% confluent cells. Cells were incubated with an RNA-transfection agent complex for 5 h, followed by replenishment with fresh culture medium. […]
as §2

IFNβ = IFNβ ELISA of transfected melanoma cell supernatants; format: cell-based, human
Procedure: as §1, with “2'Fluoro” for “2′Fluoro”, “B18R” left out, “IFNβ. Cells were transfected with RNAs as described above. At 24 hours after RNA transfection, culture supernatants were collected and stored at -80° C. for later analyses. The production of human IL-8 was analyzed with a human IL-8 ELISA kit (eBioscience). IFN-β production was determined with a human IFN-β ELISA kit (PBL Biomedical Laboratories, Piscataway, N.J.) by following the manufacturer's instructions.” for “IFNβ.”

IL-8 = IL-8 ELISA of transfected melanoma cell supernatants; format: cell-based, human; conditions: 0.5 μg/ml, 24 h
Procedure: as §1, with “2'Fluoro” for “2′Fluoro”, “[…] The production of human IL-8 was analyzed” for “Cells were then treated”, “a” for “immune stimulatory RNA transfections. Staurosporine (2 μM) (Sigma, St Louis, Mo.) and recombinant”, “IL-8 ELISA kit (eBioscience). IFN-β production was determined with a human IFN-β ELISA kit (PBL Biomedical Laboratories, Piscataway,” for “IFNβ (20 ng/ml) (PeproTech, Rocky Hill,”, “by following” for “were used as positive controls of anti-melanoma cytotoxicity. B18R (100 ng/ml) (eBioscience, San Diego, Calif.) was added directly to”, “manufacturer's instructions.” for “growth media of cells to neutralize IFNβ.”

B1: 10F: 5′ppp 2′F pyrimidine ssRNA aptamer, 71 nt, human melanocytic cell-targeting, SEQ ID NO: 4 (nucleic acid)
chain: {ppp}-rGrGrGrArGrGrAfCrGrAfUrGfCrGrGfUrAfCfCfUrGrAfCrArGfCrAfUfCfUfUrGrAfUrArAfUrGrGfUfCfCfUrAfCrGrGrArGfCfCrGfUfUfCfCrArGrAfCrGrAfCfUfCrGfCfCfCrGrA
cytotoxicity, fold compared to unmodified 5′ppp RNAs (WM266-4 cells [1]; 5′ppp 10F variants, 72 h, MTT): over 2 fold | cell death / apoptosis of melanoma cells on co-treatment with B18R (WM266-4 cells [1]; B18R 100 ng/ml, type I IFN decoy receptor): only partially rescued | growth inhibition / cytotoxicity (anti-melanoma effect), in words (WM266-4 cells [1]; liposomal transfection, 72 h, MTT): comparable to levels observed for the gold standard PRR-activating anti-cancer agent, polyI:C | apoptosis after dephosphorylation of the aptamer (WM266-4 cells [2]): partially prevented | IFNβ production, fold compared to unmodified 5′ppp RNAs (IFNβ; 0.5 μg/ml, 24 h, ELISA): over 2 fold | IFNβ production after dephosphorylation of the aptamer (IFNβ; aptamer treated with bacterial alkaline phosphatase (BAP), 0.125 μg/ml): partially prevented | IFNβ production / induction, in words (IFNβ; liposomal transfection, ELISA): strong induction | IL-8 production, fold compared to unmodified 5′ppp RNAs (IL-8): over 2 fold | IL-8 production, in words (IL-8): strong induction
